Reference: the RNAGym collection of RNA variant scans (doi:10.1073/pnas.2313332121)
Fewer inactive variants are shown than the library holds.

B1: TPR 5TU (parent)
chain: GGAUCUUCUCGAUCUAACAAAAAAGACAAAUCUGCCACAAAGCUUGAGAGCAUCUUCGGAUGCAGAGGCGGCAGCCUUCGGUGGCGCGAUAGCGCCAACGUUCUCAACUAUGACACGCAAAACGCGUGCUCCGUUGAAUGGAGUUUAUCAUG

Variants of: B1
Experiment: polymerase ribozyme fitness, log enrichment relative to wild type (log ratio); higher = more active; in vitro selection for triplet polymerase activity
Method in brief: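 Frozen incubation at −7 °C formed the core of a single, triplicate in vitro selection round applied to PCR-built, transcribed mutant libraries of each subunit of a heterodimeric triplet polymerase ribozyme. Extended constructs were gel-excised, captured with streptavidin beads and amplified by RT-PCR, and input and output libraries were Illumina-sequenced with a filter of ≥10 input reads and ≥1 read per output. Fitness is the logarithm of genotype enrichment relative to wild-type enrichment, with inverse-variance-weighted replicate averaging, and the logarithm is base 2.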

**Q.** With G65C G86C as the variant, how does the “polymerase ribozyme fitness (log ratio)” value read?
**A.** ≤ -4.2

**Q.** Which “polymerase ribozyme fitness (log ratio)” value does the source give for A73G G92A C99G G141U here?
**A.** ≤ -4.2

**Q.** Which “polymerase ribozyme fitness (log ratio)” value does the source give for G140U U144C here?
**A.** -3.28

**Q.** With A3C C14G C27U C85U U144G as the variant, how does the “polymerase ribozyme fitness (log ratio)” value read?
**A.** -2.9

**Q.** Which “polymerase ribozyme fitness (log ratio)” value does the source give for C51G G58U C93G C123U here?
**A.** ≤ -4.2

**Q.** For G80A C93G C96U, which “polymerase ribozyme fitness (log ratio)” value is on record?
**A.** -3.96

**Q.** Which “polymerase ribozyme fitness (log ratio)” value does the source give for U4A A22U A40G U145A here?
**A.** -3.05

**Q.** Which “polymerase ribozyme fitness (log ratio)” value does the source give for U56A G81U C93U G141C here?
**A.** -1.52

**Q.** Which “polymerase ribozyme fitness (log ratio)” value does the source give for A21C A40C G94A G128U here?
**A.** -3.51

**Q.** For A29U C35G G71C, which “polymerase ribozyme fitness (log ratio)” value is on record?
**A.** ≤ -4.2

**Q.** For A22C A52G A106C C118U A142G, which “polymerase ribozyme fitness (log ratio)” value is on record?
**A.** -3.06

**Q.** Which “polymerase ribozyme fitness (log ratio)” value does the source give for C38U A39C C95U here?
**A.** -2.34

**Q.** For A41C G143C, which “polymerase ribozyme fitness (log ratio)” value is on record?
**A.** -2.56

**Q.** Which “polymerase ribozyme fitness (log ratio)” value does the source give for A20U A29U G71U G84A here?
**A.** ≤ -4.2

**Q.** For A47C C96A C123G U151G, which “polymerase ribozyme fitness (log ratio)” value is on record?
**A.** ≤ -4.2

**Q.** With G86U A147G as the variant, how does the “polymerase ribozyme fitness (log ratio)” value read?
**A.** -3.45

**Q.** Which “polymerase ribozyme fitness (log ratio)” value does the source give for A19U G25A U61A here?
**A.** ≤ -4.2

**Q.** For U9G G58C C93G C118U G143A U144C, which “polymerase ribozyme fitness (log ratio)” value is on record?
**A.** ≤ -4.2

**Q.** With U9C A26U C38U C54A A66C U78A A89C A97G as the variant, how does the “polymerase ribozyme fitness (log ratio)” value read?
**A.** ≤ -4.2

**Q.** For C14G C36A A52G A66C C93U C125A, which “polymerase ribozyme fitness (log ratio)” value is on record?
**A.** ≤ -4.2

**Q.** Which “polymerase ribozyme fitness (log ratio)” value does the source give for C10U G25U C32A C76A G83U G88C C93G here?
**A.** ≤ -4.2

**Q.** For A22C G48U A60G, which “polymerase ribozyme fitness (log ratio)” value is on record?
**A.** 0.164

**Q.** With A23U G42U G58U C75U U148G as the variant, how does the “polymerase ribozyme fitness (log ratio)” value read?
**A.** ≤ -4.2

**Q.** With C76G G94U C96G U111A as the variant, how does the “polymerase ribozyme fitness (log ratio)” value read?
**A.** ≤ -4.2

**Q.** With G71C C116U as the variant, how does the “polymerase ribozyme fitness (log ratio)” value read?
**A.** -2.51

**Q.** With U6C A23G U61A as the variant, how does the “polymerase ribozyme fitness (log ratio)” value read?
**A.** ≤ -4.2

**Q.** With U55G G68A as the variant, how does the “polymerase ribozyme fitness (log ratio)” value read?
**A.** -3.69

**Q.** Which “polymerase ribozyme fitness (log ratio)” value does the source give for C5U C105U A138U here?
**A.** ≤ -4.2

**Q.** With G59C G126C as the variant, how does the “polymerase ribozyme fitness (log ratio)” value read?
**A.** 0.783

**Q.** Which “polymerase ribozyme fitness (log ratio)” value does the source give for C35A G86A here?
**A.** ≤ -4.2

**Q.** With A40U A60G A89U U134C as the variant, how does the “polymerase ribozyme fitness (log ratio)” value read?
**A.** -0.16

**Q.** For G58C A73G C85G, which “polymerase ribozyme fitness (log ratio)” value is on record?
**A.** -2.21

**Q.** Which “polymerase ribozyme fitness (log ratio)” value does the source give for G88A A147C here?
**A.** -4.01

**Q.** With C14U C35U G84U C131U as the variant, how does the “polymerase ribozyme fitness (log ratio)” value read?
**A.** -3.79

**Q.** With A26U A52U U135A as the variant, how does the “polymerase ribozyme fitness (log ratio)” value read?
**A.** -2.83

**Q.** For C85A C87U A98C, which “polymerase ribozyme fitness (log ratio)” value is on record?
**A.** -3.62

**Q.** With U31C U56G C123A G136C as the variant, how does the “polymerase ribozyme fitness (log ratio)” value read?
**A.** -2.61

**Q.** For A19C U61C G141C U144C C149A, which “polymerase ribozyme fitness (log ratio)” value is on record?
**A.** ≤ -4.2

**Q.** Which “polymerase ribozyme fitness (log ratio)” value does the source give for C8U G50U G71C C85G here?
**A.** ≤ -4.2

**Q.** Which “polymerase ribozyme fitness (log ratio)” value does the source give for A24U G48U G83A here?
**A.** -1.25

**Q.** Which “polymerase ribozyme fitness (log ratio)” value does the source give for C14U U55A C85G C93U C96A U102A A115G here?
**A.** ≤ -4.2

**Q.** For C57A C85U G124U U130A, which “polymerase ribozyme fitness (log ratio)” value is on record?
**A.** -2.9

**Q.** With C43A U44A A91U G141U A150C as the variant, how does the “polymerase ribozyme fitness (log ratio)” value read?
**A.** ≤ -4.2

**Q.** Which “polymerase ribozyme fitness (log ratio)” value does the source give for C27U G141C here?
**A.** -2.54

**Q.** With A3U A24U A66U C93G A107C as the variant, how does the “polymerase ribozyme fitness (log ratio)” value read?
**A.** ≤ -4.2

**Q.** Which “polymerase ribozyme fitness (log ratio)” value does the source give for C35U C116U A120G here?
**A.** -0.528

**Q.** With C27U U55A G68U C85G as the variant, how does the “polymerase ribozyme fitness (log ratio)” value read?
**A.** ≤ -4.2

**Q.** For A26U A73U A91U C96G A137C, which “polymerase ribozyme fitness (log ratio)” value is on record?
**A.** ≤ -4.2

**Q.** For G81A A91G, which “polymerase ribozyme fitness (log ratio)” value is on record?
**A.** -2.82

**Q.** Which “polymerase ribozyme fitness (log ratio)” value does the source give for A19C A91U C95A here?
**A.** ≤ -4.2

**Q.** With A20C A115U as the variant, how does the “polymerase ribozyme fitness (log ratio)” value read?
**A.** -2.36

**Q.** For A41U G80A A97U, which “polymerase ribozyme fitness (log ratio)” value is on record?
**A.** -1.76

**Q.** For C75G C95U, which “polymerase ribozyme fitness (log ratio)” value is on record?
**A.** -2.19

**Q.** For U6G G80A U82G G141U, which “polymerase ribozyme fitness (log ratio)” value is on record?
**A.** 0.34

**Q.** Which “polymerase ribozyme fitness (log ratio)” value does the source give for C35U C51G G71U C131U here?
**A.** ≤ -4.2

**Q.** With A17G G46A C69A A121G as the variant, how does the “polymerase ribozyme fitness (log ratio)” value read?
**A.** -3.45

**Q.** With U135C as the variant, how does the “polymerase ribozyme fitness (log ratio)” value read?
**A.** -1.38

**Q.** Which “polymerase ribozyme fitness (log ratio)” value does the source give for A26U U53A here?
**A.** -1.58

**Q.** With A41C G46A C57U C95U A115G as the variant, how does the “polymerase ribozyme fitness (log ratio)” value read?
**A.** -3.25

**Q.** With U53A C96G as the variant, how does the “polymerase ribozyme fitness (log ratio)” value read?
**A.** -2.55

**Q.** For G11U A28U C43U C87A C99G G126A, which “polymerase ribozyme fitness (log ratio)” value is on record?
**A.** -4.16

**Q.** Which “polymerase ribozyme fitness (log ratio)” value does the source give for C5G C35U G59C C87U G100U C125G G133A U145C here?
**A.** ≤ -4.2

**Q.** With A26U G86U as the variant, how does the “polymerase ribozyme fitness (log ratio)” value read?
**A.** -3.84

**Q.** With G84U G117U as the variant, how does the “polymerase ribozyme fitness (log ratio)” value read?
**A.** -1.61

**Q.** For C54A A73U C87U, which “polymerase ribozyme fitness (log ratio)” value is on record?
**A.** -3.49

**Q.** With A73G A119C as the variant, how does the “polymerase ribozyme fitness (log ratio)” value read?
**A.** -0.028

**Q.** Which “polymerase ribozyme fitness (log ratio)” value does the source give for C5A G59C C96A A98U here?
**A.** -0.127

**Q.** For C18A C69G C96U C103A, which “polymerase ribozyme fitness (log ratio)” value is on record?
**A.** -2.88

**Q.** For G25A A28U A41U A66U G83U U111G C118U, which “polymerase ribozyme fitness (log ratio)” value is on record?
**A.** ≤ -4.2

**Q.** With A17C A30C as the variant, how does the “polymerase ribozyme fitness (log ratio)” value read?
**A.** -3.82

**Q.** For G65A G136C A147C, which “polymerase ribozyme fitness (log ratio)” value is on record?
**A.** -4.13

**Q.** For C35U G92A C96G A98C, which “polymerase ribozyme fitness (log ratio)” value is on record?
**A.** -3.23

**Q.** For U7C U53G G86C A106G A150C, which “polymerase ribozyme fitness (log ratio)” value is on record?
**A.** ≤ -4.2

**Q.** Which “polymerase ribozyme fitness (log ratio)” value does the source give for U7G A21U C54A A66C A91C G136A here?
**A.** ≤ -4.2

**Q.** Which “polymerase ribozyme fitness (log ratio)” value does the source give for U55A C63U C85U C105U here?
**A.** 0.719

**Q.** Which “polymerase ribozyme fitness (log ratio)” value does the source give for U61A C108U here?
**A.** -3.86

**Q.** For A40C U61A C76A, which “polymerase ribozyme fitness (log ratio)” value is on record?
**A.** ≤ -4.2

**Q.** Which “polymerase ribozyme fitness (log ratio)” value does the source give for U6C U56G A64C G143U here?
**A.** ≤ -4.2

**Q.** For G42C C51G U56A G83A C105U A122U U148A, which “polymerase ribozyme fitness (log ratio)” value is on record?
**A.** ≤ -4.2

**Q.** For G46U A64U C76A C87A G126U, which “polymerase ribozyme fitness (log ratio)” value is on record?
**A.** ≤ -4.2

**Q.** Which “polymerase ribozyme fitness (log ratio)” value does the source give for A24G G50C C72U C87G U111C here?
**A.** ≤ -4.2

**Q.** Which “polymerase ribozyme fitness (log ratio)” value does the source give for A21G G58A A122U U145G here?
**A.** 0.687

**Q.** For U7A C27A G59U G83A G94A C103G, which “polymerase ribozyme fitness (log ratio)” value is on record?
**A.** ≤ -4.2
